Results as given in US20260174885A1.

Tests used:
[1] = biological target: human epidermal growth factor receptor (human EGFR) (human) (UniProt P00533); assay: flow cytometry, Beckman Coulter CytoFLEX S; WI-38 cells stained with PE-anti hEGFR antibody for 30 minutes on ice
[2] = biological target: human epidermal growth factor receptor (human EGFR) (human) (UniProt P00533); assay: flow cytometry, BD FACS Aria; MCF-7 cells (low EGFR expression) stained with PE-anti hEGFR antibody for 30 minutes on ice
[3] = biological target: human epidermal growth factor receptor (human EGFR) (human) (UniProt P00533); assay: flow cytometry, BD FACS Aria; WI-38 cells stained with PE-anti hEGFR antibody for 30 minutes on ice
[4] = biological target: human epidermal growth factor receptor (human EGFR) (human) (UniProt P00533); assay: flow cytometry, BD FACS Aria; RencaEGFR M1 H cells (human EGFR on the cell surface) stained with PE-anti hEGFR antibody for 30 minutes on ice
[5] = biological target: human epidermal growth factor receptor (human EGFR) (human) (UniProt P00533); assay: flow cytometry, Beckman Coulter CytoFLEX S; U87MG cells stained with PE-anti hEGFR antibody for 30 minutes on ice

PE-anti hEGFR antibody (Biolegend, Cat #352904)
MFI [1]: 1100
MFI [2]: 2670
MFI [3]: 53300
MFI [4]: 834000
MFI [5]: 1020
